Results from the DeepSol protein solubility set.

Assay: soluble on expression in E. coli; label from the status in PepcDB or PDB records
With “MAHHHHHHMEDVRPVTSPLTEDTAYTRCLRGAKEAKERGNTAISDKNFKEASFQYKKALLFLSEYIPGDGGFSEDALIDMLARRRGVATPRDLSPGRKSELMDLYVTVMNNLAVADMRLCRFDKGVEHTTKVLNVPGQEKNRKALWRRAECHVQRGHIEEAEKDVDVLAACAEGNGQQSEEVVEQLRMKIKEKKKQLVREERAICKKMFEHGS” the “soluble on expression in E. coli” value was “soluble”. For “MAHHHHHHMEEGAPTPAAPVGEDQEVAAAPATEEPASIMQVENTNFNWADDDIQFQIRQPQYAAEYPVSVLENLARNVTFKVPEDQNTMTSAIEALARERQAFEQMKRNHEDAMKSREVELNAQEATLQARERQLHANTETLAAERQQLILQQSQFRAQQAQAQAQSQAQAQTQSQPRTSSQTQSPAAQVSPSPAQAAQPAHAPQLQHQMPPPHQQPQPRSGNVYMGGGYGAQEWQPDQRTWGNEGAMGAPGFDMYQGAYPGSYAQRNYHMAGGHRGQMRSGNLPQQQFPGNRMQPMMPPPQQYSRSMAPLGAARQQQMDMNFGGRSQQSYNPAPNTGYPQRSAQW”, the “soluble on expression in E. coli” value was “soluble”. With “MAHHHHHHMEKLREHSERPVPDMLVLPLTASLPQEVQSRVFEPTPPRCRKVVLATNVAETSITITNLYFVVDSGFCKQNVFDPKTGMEQLKIVPISQAQAQQRAGRAGRIGPGKCFRMYTELQFQMDMEPATVPDIQRSNLFHVVLQLKAMGINDLFALDLMDPPPQETLVSALQKLRYLEALDDDGLLTPLGGRMAQLPIDPSQSKTLLTAVDMGCCEPVLTIVSMLAVQKRGVFYRPRDQHEASDAAKRQFHQPEGDQITLLAVYDAWVANGLSEEWCKRNFLKHRILMEARDTREQLSDMLHKRHASIPHHNDDALTEVRRAITAGYFFNVAKRITDVAYATLAERREVYVHPSSCLRDAPPKYVLYNELQLTNREYMRELLVIEPQWLVELAPAFYSRPRKGKLTKEQRAERLNPILRAWENGSSWRISKLRRRK” the “soluble on expression in E. coli” value was “not soluble”. For “MAHHHHHHMENEALKEQEGEENKRILVLHKRYREGPFENRLRFECELEFVQSLSNIDYIKHLYENKYFSDKRFLNYLKYLNYWRTKPYIFYIHFPICLYVLEILNDGKIDEYFSKESSFNNFVYYLKLHWLFYSYQI”, the “soluble on expression in E. coli” value was “not soluble”. With “MAHHHHHHMENILSKVDKIEPFDPKVKEQYNQFKYDVTKQAIESLRERIPQRIIYFNTLVNVNAEPGSILDVRDLDTKTYKYTSNQTEENARKKHKTSDHNVTEKKKDSIEMNTQNDINYEEKKIVIDENIIYTHYVPSHKQISAELEKIKAYSSELIEIIGNIKLWIQLNVPRIEDGNNFGVGIQEEAIQELARVEESAFNLYDAIVKYYMDRAKLATKVIKYPNVHDYQEAVQELDKKEWIHIKITIIDMRNNYIMLYDLLCKNWEKVVKPKNEDAHHRMTF” the “soluble on expression in E. coli” value was “soluble”. For “MAHHHHHHMENINRVNKYDNPNEAIKNMVDKIINKKEMMKYFLDAQDIFEYHDVGKKGEVDITLFPKMARQLKQVYDIRDINNFKKEMKIKKIYKMDLQLFFTLLKRKILYSINNSNNNENDNSSFRQHYDILDMKKKQLLDVDELRTYLGLMGDKINPDDFNILLRYNLINNHRINKDDIVLDENKEIKNISFNAYVDMLTCYKYI”, the “soluble on expression in E. coli” value was “not soluble”. For “MAHHHHHHMEPSTLPYITRDVATEPPTTIAIVSCGGQPPELSGKDETMFAVTEDCVEPTKGWINREGKPLLTVCFMHSFGKCVGRTSSNPATCFQIHIKANVLNALRKHYTNPTRRFFTRTVKAMLSPELRRLLCMRAHKEFKVQYLEYRVSDIFPSTGLLQYEAAYRRWLFSDDTNAEHAGTITVLQCLQFSMTGSCDSSTDCPYIHADLKKAQARDPMLARALRDVSDANQGLPTVSIRVPELLPAGHSSTICPADATYATLTDGANLQSGMPSDPARDFTKVPAFTLVYGEGESGGRCVPLQMHQRESSSSSAGGHANSTYPLSHVPFINQDDPASEMTAAKSQPTSGKNEKASVSGKSGSGWVNNSNEGAGSINNHTGSCGSGTD”, the “soluble on expression in E. coli” value was “not soluble”. With “MAHHHHHHMETTAEEISAMLNENEHALIGELQGKYDFINFNEMKNYKEKKLHHELTLEVQKFINNKNVQVKDKFRLFYTLLSPLMSKLKKTIYAELLYIVTANFDANWTISYLKESEKNLENDKDAIIIYRCILILKYIELGDFKSCENEIENTKNLLQGVIGLNVVAHKFYNFAIMKYYNVLNKSDLFVKYALLYLAYTPLNDLDEADKIEIGTHICMHSIISEDVYNIGEIIQLPLINVCLKNNEQTNWLYQLIYIYNEGNIEVFNQVVHKYEENIKNSLLKDYKKNMIKKITLLALMDLAFKKKKQRSDISFEEIAQHCKVDVNEVEKMLITAKSKNILTCQIDEIQKSVKITWVKPRVLNNEKIFFMKESIDKWITHSKNLLTYMEDLSVELLIS” the “soluble on expression in E. coli” value was “not soluble”. For “MAHHHHHHMEVREGEPPQSWTYKAVCMTLEKDDGVEQSGAPRLRLMVLTSEKGWPYSWRWKENKSTRDCHVNCEVDRVWRTVKGDLTKWFSRRAKNKLSPRRRLLVGTPWIGNSMAADSYLLYQLLHGDAEKLQVAVYSFGSQSFLFDKTTQAVREYVDTTKSKRVFFFWQL”, the “soluble on expression in E. coli” value was “soluble”. In the case of “MAHHHHHHMFKQRDNEYHPPMTVDPSGGGVTTSAGVFGEVGMGNVASPFLDGPAAVAGSRKRGRDIRSLDRFRAVVYGEDGFRRLHAMVARNPVLMYPPDGIEAARARVMVRKAELQSQLRSALGHREHNRNPADNGDDDVFALFEARRRAESDVHPATEGEEVPRQPASEHAPLPSSLASIRQDEELATYHHKQLDSYLRLLYEFNHATFVKLPMEDTLRLLSRCGKEAVAHIVEYETQVRLRRQSRIRDLNELRQEQAALEERRLAIDDAEQARLVQSAELRQAELDLELDNGVVKAEPPDDGSADEDVKVILETSSSSVHFASLPAGDSPEENMDGIVMAVEDEGIQYT”, the “soluble on expression in E. coli” value is reported as “not soluble”. With “MAHHHHHHMFRSEAHFRMLANLRFLELQKLLLNRFQIFKNEEITVLKKGSMKTILYEWAEFLTKEQRATNMTHIPDEVLQSKRVADILRDDVECRWLVGRINVGAVSGVSGVSPPSPLSGAHLARDDAALSKVDQLHLDEYPDLFHYEYPQFPYDYYDKKKMSNFYSLMKFPYNDILNISKRIKREVSPPGGDAKEGEMRQMEEPRGGALESAGVDVVDDDFVSYSSNSYVYAPSEMETSKENYHE” the “soluble on expression in E. coli” value was “not soluble”. In the case of “MAHHHHHHMFSEPVYLTIGDEYEKRAVKPSKSRGRNFIVPVKRSPHITDAVFQKSFISLAVGDEYLPPPPGGTFRQPAEKKPGEPQPLPFKPPSRPHKSCGSGSYYGTFNEKNPPKHEPETTIAEVKKSGANAPAGTVRKPNLYTNPGKKGTYGYTGLTLGRAGEVQYISDPVGCCSGQRTHSPRTQAPFSAAVKCGGCFDEGPHGFSTVYGMNKPLPMRKVPPQRVLPPMKPWRPAGALVREITRHPEYQEDPYDLKEKRLREERLKEQSHKPWFPCGTDAYRHIYTYPVPYNPPPVV”, the “soluble on expression in E. coli” value is reported as “not soluble”. With “MAHHHHHHMFSSSTGAGAAAAAKPSAGPPSVALATVTVNEDPNIEVLLASKRIQKLTRATDALIARDFVLREEEAILDDLEAYIISLESEVRKAEFQTEELRSRSSLLRPGKRCAIAGENVELSALWNAYGSDMGYLVKRHSLRLAVLEKALATVSTRNPELPVPKPLPPPPVTKTSKTMSAMRDMSQRQKAPS” the “soluble on expression in E. coli” value was “not soluble”. In the case of “MAHHHHHHMFYVDACSQNYRMPNSAPVFSQGFPQPNRAPSLVSPNDVQNCTNDGLVNPHQAPLFTVSQQGSVVAASVLPRTVLWTANGMYGVTQMREGPEEGATRFVPSKSPDGTPVSAMQSMFLPPMQQQQQQQQQASNCPLLYILTTVAVPQTYPQTSLQEQKSQHVTPVTHQIISMKGPSVAPSQSIGINTLNPSCITNNSDAMQTCGSGSKVNVNVVCRHFIKSCCNRRKCRFLHTLNEAPLANI”, the “soluble on expression in E. coli” value is reported as “not soluble”. For “MAHHHHHHMGDHLGSRFTVIEQIGSGNYGSLYRVIDGEAATLADRIIATKKLQDTINHPHVLREVSAQRHAQKCSPHIVKLLHVVPRDRVRAALVLEYVPLDLRTFLNAFYCNQAKSSAPTWCATAGADELKSAAAPPCHIPLIYVRRMLRGLIEALHCLHARGIAHRDVKPENILVEPLGLGHPLRCVCPPMGSFGPAGEAAGCWVHAPHCPDPRQEERGVTRPMQPQGTLEPCQFFRRYSVALHHELTGDELASAIHRLHCETCRPCPCARAGAGKHAPQQHRDSSEMKTGNSCAQERQADAVDEESPANVDDGEADKLTAPMSPPLMPDVKLCDFGSARHIGTLRLRSAEEQREELTPGPTTPVYCAPEMMLLQRYGTSVDMWAVGAILFEMLTGEFFLGVGTLRSFSGDVVVRDDYCVMHRLNRMFRHLGTPSVEEWRCIAHPHYYPDEMLAHLPQVRDAALFRCLAQPIDTDGSFRRDSGDIKSNGDAKTADVQTDLNVRPSAGTCSCAQAPVNGTTDSHAARASAPPRDATAARHPLNVSDFLYQHIGESGVDFLRSLLRYDPAKRMTSAEALRHPFLSPEVANM”, the “soluble on expression in E. coli” value was “not soluble”. With “MAHHHHHHMGEGTAAAPPHSQEPRLRRRPRQLTVRHVVHVQPTSYFAQFERRCRHDALLYSPFLREDRVQARPKTLPPSLHREVGEPGVYAAYNAYIFADVAGQHDPLHHRRVCAAADHGEEEAVAARVEAGGDVVVATNVSSPPRPDSSKSLSAVQLSLTPLLSFTLDDMADTADGDAGMGNRVECESGSTRIGEAHRCHPPPPLLHGTPPEAGLPLHKTWHLFTSYVQRHFTAFPTALVHRYHLHHLAPSLFPNVGAAALMQGAGGAGNATGDRAARSGTAVGVAISTEASGSGSAVRAARAKPNVSNSSSSSAEDVVEYWPYSLKLRCIPEATLQLPYKQHATAKKTTQAQQRAEMAGSARQAPSTVNASLGHDAATAAAVPSPHLPAPRKRERQVSSSGDSASAPAYTVHASASSSTATAATPRVLPPPAAAARTRPPSAPPRRVAVVDGVTSLLPYPTPASALALLSTTFLRSLRTSSVVAAAAAAAAGTGEVPATPSTLTESRADWHGGFAASHQRVDVPSTGMVGMGGGALGFLGTGSAVPSKYRNVSGTFLELHLPAYCFPGGGCPVKPLLHDDDSAHASGAAAVVAEDTPSATSASPPAGEAACARREGDAVLGFGSADSSTYSCGPATVSMDESQKTAPRRWSSAPLKMDSQQLRPWGGYPGLWRGQCRAARLSMRASPWR” the “soluble on expression in E. coli” value was “soluble”. In the case of “MAHHHHHHMGGCCKGARCPFSHELVQLPPKGVDASGGYFISGNVANYRAAASTSTASPSSRSFVGRWDDPTASSSTDGLSTLASPSSCCVTTGTSLSAEAKEWVGADSAATSSSANSATASITSVQSLRGAASPTFCVSSSSLRYRSAALRRTAQQVSPLPMPHSQRDSQPQPQQAQTQLQSQQSQKPQPSPPQPQLHQQHKRQYQPPPQPRSVANALSALLPNHSESSAAAETRHTSAAPAHPAATARTVSFTQSSNGSGSTTIAALASFFDMQRVSTGAPSATPSSAASQPSKVVFATRRDDQTPATAPTPATAAPPRYTAACITLAASNQRFDPSPSAPSIPTTATPAPAHGSSRSATTSQHMEAPLPRSREALATGAEHQTATVAKAHVTQSAAPPSAAAAPTSPPQYESRTASSAQTRVMPPAPRSQQQQAAHQAQQLRAQEEAQRQVQIQQQLHAQQQAQQLAQQQAQLQQFQQQIQPQKPPPPQQTVYMLTTSRPPTTSTPPHEGIVAPDQLPLGYTLAYAVSTPTPTASAATPILISEQPSAARPTYTLLSSCPPQSQLQSFQTAKGTVLYATPAQVLTQAAAPSENDAPRLILVNTDGTFTVLQAETLAATAGLGLSPTIMRAH”, the “soluble on expression in E. coli” value is reported as “not soluble”. In the case of “MAHHHHHHMGKNETDTDVLTSNVEVGSVLSQCAESRVHECNFYGYRAVCKHRFPKAYRHPALDQRLREQRTVREGRALARCLKNGVLAPTVFAVDRERCAIVMERIDGLTVREIFNHEQGNVAQGKTDVSFLVSFLLRGMGEVVGLLHNADIIHGDLTTSNFMCKRNFLERRLSTENLASNTSSRDSIVVLDFGLVMDKNSAEERAVDLYVLERALKSSHPFLEHVATRLVLEGYHRTVDPQKGSVTMARLEAVRARGRKRSMIG”, the “soluble on expression in E. coli” value is reported as “not soluble”.
